# B1: TNK: form of tissue plasminogen activator, thrombolytic agent (Genentech) (protein, UniProt P00750 36-562, looked up, variant T103N N117Q K296A H297A R298A R299A)
# Tissue-type plasminogen …: SYQVICRDEKTQMIYQQHQSWLRPVLRSNRVEYCWCNSGRAQCHSVPVKSCSEPRCFNGGTCQQALYFSDFVCQCPEGFAGKCCEIDTRATCYEDQGISYRGNWSTAESGAECTNWQSSALAQKPYSGRRPDAIRLGLGNHNYCRNPDRDSKPWCYVFKAGKYSSEFCSTPACSEGNSDCYFGNGSAYRGTHSLTESGASCLPWNSMILIGKVYTAQNPSAQALGLGKHNYCRNPDGDAKPWCHVLKNRRLTWEYCDVPSCSTCGLRQYSQPQFRIKGGLFADIASHPWQAAIFAAAAASPGERFLCGGILISSCWILSAAHCFQERFPPHHLTVILGRTYRVVPGEEEQKFEVEKYIVHKEFDDDTYDNDIALLQLKSDSSRCAQESSVVRTVCLPPADLQLPDWTECELSGYGKHEALSPFYSERLKEAHVRLYPSSRCTSQHLLNRTVTDNMLCAGDTRSGGPQANLHDACQGDSGGPLVCLNDGRMTLVGIISWGLGCGQKDVPGVYTKVTNYLDWIRDNMRP
# Legend:
# platelets [1] = assay: in vitro comparison of TNK versus t-PA on platelet activation and surface receptor expression (15 parameters); type: cell-based, human; details: TNK 12 μg/mL, t-PA 4 μg/mL, 30 minutes
# Procedure: (§1) Blood samples for the in vitro study were obtained from 9 healthy volunteers. None of the subjects smoked or had hypertension, diabetes, or an abnormal hematocrit. None had received aspirin or any other antiplatelet drugs. All subjects underwent blood sampling after at least 30 minutes of rest and 2 or more hours of fasting. Blood was drawn from an antecubital vein between 8 am and 10 am in order to avoid any diurnal influence. A 21-gauge butterfly needle was used to draw blood into a tube containing 3.8% sodium citrate (1:9 volume); the first 1.5 mL of free running blood was discarded. One tube was kept as an internal control. A second tube was incubated with tenecteplase (TNK) for 30 minutes at room temperature in order to achieve a final concentration of 12 μg/mL. […]
# For the platelet aggregation (PA) studies, platelet-rich plasma (PRP) was first isolated. […] Platelet counts were determined for each PRP sample with a Coulter Counter ZM (Coulter Co., Hialeah, Fla.). […] Platelet aggregation was determined by using a 4 channel Chrono-log Lumi-Aggregometer (model 560-Ca) and expressed as the maximum percentage of light transmittance change (% max) from the baseline at the end of the recording time. […] Platelet aggregability curves were recorded for 6 minutes and analyzed according to internationally established standards (see, e.g., Ruggeri, Z. M. (1994) Semin. Hemat. 31:229-239). […]
# [2] = test system: platelet-derived biomarkers; assay: ASSENT-2 platelet substudy: ELISA of platelet-derived biomarkers in plasma of AMI patients; type: in vivo, human
# Procedure: Forty-one patients with ST-segment elevation AMI enrolled in a single ASSENT-2 site (Rashid Hospital, Dubai, United Arab Emirates) were studied. The inclusion and exclusion criteria of ASSENT-2 have been previously reported ([no authors listed] (1999) Lancet 354:716-722). Briefly, patients included in the trial were between 18 and 70 years of age and were seen within 6 hours of symptom onset with >30 minutes of continuous symptoms. […] After informed consent was obtained, 7 serum samples were drawn. Samples were collected at baseline and at 30-minute intervals during a 180-minute period. Within 15 minutes of sample acquisition, plasma was separated by centrifugation at 800 g for 10 minutes, aspirated, placed in vials, and snapped frozen at −20° C.
# Enzyme-linked immunosorbent assay (ELISA) was used according to standard sandwich techniques for CD 31 (sPECAM-1), sVACAM-1, sP-selectin, (R&D Systems Inc. Minneapolis, Minn.), beta-thromboglobulin, Asserachrom® (Diagnostica Stago Inc., Parsippany, N.J.), platelet factor 4 Asserachrom®, thromboxane, and prostacyclin (Cayman Chemical Co., MI). Each sample was measured in duplicate, and the overall intra-assay coefficient of variation was between 3.1%±0.4% and 7.6%±1.0%, with a plasma recovery rate between 89.7% and 98.7%.
# (§2) For all comparisons, statistical analyses were done by using repeated measures ANOVA. Post hoc comparison was performed by use of the Bonferroni t-test to identify specific differences in platelet aggregation and receptor expression between patients treated with TNK and t-PA, and controls. The Mann-Whitney U test was used to analyze non-parametric data. Normally distributed data were expressed as mean±SE, and skewed data as median (range). Probability values of P<0.05 were regarded as statistically significant. Linear regression analysis was applied to normally distributed data for all study participants by using the Statview 4.1 program for analysis.
# In the ASSENT-2 Platelet Substudy, 21 of the 41 patients enrolled received TNK (30-50 mg), while the remaining 20 received t-PA (40-85 mg). There were no substantial differences in baseline characteristics for the AMI patients.
# platelets [3] = assay: rapid platelet-function assay (Ultegra); type: cell-based, human; details: TNK 12 μg/mL, t-PA 4 μg/mL
# Procedure: (§3) Blood samples for the in vitro study were obtained from 9 healthy volunteers. None of the subjects smoked or had hypertension, diabetes, or an abnormal hematocrit. None had received aspirin or any other antiplatelet drugs. All subjects underwent blood sampling after at least 30 minutes of rest and 2 or more hours of fasting. Blood was drawn from an antecubital vein between 8 am and 10 am in order to avoid any diurnal influence. A 21-gauge butterfly needle was used to draw blood into a tube containing 3.8% sodium citrate (1:9 volume); the first 1.5 mL of free running blood was discarded. One tube was kept as an internal control. A second tube was incubated with tenecteplase (TNK) for 30 minutes at room temperature in order to achieve a final concentration of 12 μg/mL. The third tube was similarly incubated with alteplase (t-PA) to achieve a concentration of 4 μg/mL. The concentrations of TNK and t-PA that were chosen approximated conventional plasma levels observed in patients receiving TNK and t-PA bolus (30 mg, and 15 mg, respectively; data on file, Genentech, Inc., South San Francisco, Calif.). Fresh solutions of TNK and t-PA were prepared in Dulbecco's phosphate buffered saline (DPBS) ex tempore on the morning of the platelet studies.
# With rapid platelet-function assay (RPFA (Ultegra®); Accumetrics, Inc., San Diego, Calif.), polystyrene beads coated with fibrinogen are placed in a cartridge along with a peptide that activates the thrombin receptor. A whole blood citrate mixture is added to the cartridge, and agglutination between platelets and coated beads is recorded. The data mirror turbidometric platelet aggregation and reflect the degree of platelet glycoprotein IIb/IIIa blockade.
# For all comparisons, statistical analyses were done by using repeated measures ANOVA. Post hoc comparison was performed by use of the Bonferroni t-test to identify specific differences in platelet aggregation and receptor expression between patients treated with TNK and t-PA, and controls. […] Normally distributed data were expressed as mean±SE, and skewed data as median (range). […]
# platelets [4] = assay: in vitro whole blood aggregometry (impedance); type: cell-based, human; details: 5 μg/mL collagen; TNK 12 μg/mL, t-PA 4 μg/mL
# Procedure: as §1
# Whole blood samples were prepared as follows: whole blood citrate mixture was diluted 1:1 with 0.5 mL Tyrode's buffer solution, then swirled gently. […] Platelet aggregability was expressed as the change in electrical impedance and is expressed in ohms. Aggregation curves were recorded for 6 minutes and analyzed by use of Aggrolink® software (Chrono-log Corporation).
# (§4) For all comparisons, statistical analyses were done by using repeated measures ANOVA. […] Normally distributed data were expressed as mean±SE, and skewed data as median (range). […]
# platelets [5] = assay: PFA-100 platelet function analyzer, closure time; type: cell-based, human; details: TNK 12 μg/mL, t-PA 4 μg/mL
# Procedure: as §3
# The PFA-100™ (Dade Behring, Deerfield, Ill.) is a high shear-inducing platelet function analyzer that simulates primary hemostasis after injury to a small vessel under flow conditions (see, e.g. Kundu, S. K. et al. (1996) Clin. Appl. Thromb. Hemost. 2:241-249). The device provides a constant negative pressure that aspirates a whole blood-citrate mixture, which comes into contact with a collagen-coated membrane and then passes through an aperture. The time required to obtain occlusion of the aperture is digitally recorded and is a measure of shear-induced platelet aggregation.
# as §4
# platelets [6] = assay: in vitro whole blood flow cytometry of platelet receptors and platelet-monocyte aggregates; type: cell-based, human; details: TNK 12 μg/mL, t-PA 4 μg/mL
# Procedure: as §3
# The surface expression of platelet receptors was determined by flow cytometry by using the following monoclonal antibodies: CD 41 (glycoprotein [GP] IIb/IIIa, α IIbβ3) CD 42b (GP Ib), CD 62p (P-selectin), CD 51/CD 61 (αvβ3, or vitronectin receptor), CD 31 (platelet endothelial cell adhesion molecule [PECAM]-1), CD 107a (LAMP-1), CD 107b (LAMP-2), CD 63 (LIMP or LAMP-3), and CD 151 (PETA-3) (PharMingen, San Diego, Calif.). Platelet-leukocyte interactions were assessed by using dual antibodies for a pan-platelet marker (CD 41), together with CD 14, a monocyte/macrophage marker. The blood-citrate mixture (50 μl) was diluted with 450 μl Tris buffered saline (TBS) (10 mmol/L Tris, 0.15 mol/L sodium chloride) and mixed by gently inverting an Eppendorf tube 2 times. The corresponding antibody was then added (5 μl) and incubated at 4° C. for 30 minutes. After incubation, 400 μl of 2% buffered paraformaldehyde was added for fixation. The samples were analyzed on a Becton Dickinson FACScan flow cytometer set up to measure fluorescent light scatter, as previously described. All parameters were collected by using 4-decade logarithmic amplification. The data were collected in list mode files and then analyzed. P-selectin was expressed as percent positive cells. Other antigens were expressed as log mean fluorescence intensity.
# as §2
molecule,measurement,setting,value
B1,"platelet function, 10 of 15 parameters, compared with baseline DPBS values",platelets [1],diminished platelet function
same,P-selectin plasma concentrations,[2]; 30-60 minutes,immediate increase
same,P-selectin plasma concentrations,[2]; 120-150 minutes,significant decrease
same,P-selectin plasma concentrations,[2]; 180 minutes,rebound
same,plasma levels of PECAM-1,[2]; AMI patients after thrombolysis,significantly inhibited
same,release of substances from platelets (plasma biomarkers),"[2]; TNK 30-50 mg, t-PA 40-85 mg, 180-minute period",decreased release
same,vascular cell adhesion molecule-1 (VCAM-1) release,[2]; after 90 minutes,inhibited significantly
same,"inhibition of thromboxane formation, TNK versus t-PA","[2]; human, in vivo",significantly stronger
same,"pattern of prostacyclin release, between the agents","[2]; human, in vivo",very similar
same,plasma concentrations of prostacyclin,"[2]; human, in vivo",significant and early decrease
same,plasma concentrations of thromboxane,"[2]; human, in vivo",significant and early decrease
same,"prevention of platelet activation, TNK versus t-PA group","[2]; human, in vivo",stronger prevention of platelet activation
same,platelet activation units (Ultegra) compared with DPBS,platelets [3],reduction
same,"platelet activation with the Ultegra analyzer, TNK versus t-PA samples",platelets [3],statistically significant decrease
same,"whole blood aggregometry, TNK versus t-PA samples",platelets [4],statistically significant decrease
same,closure time (PFA-100) compared with DPBS,platelets [5],prolongation
same,"closure time with the ADP/collagen cartridge (PFA-100), TNK versus t-PA samples",platelets [5],extension
same,"CD 151 expression, TNK versus t-PA samples",platelets [6],Significant reduction
same,"PECAM-1 expression, TNK versus t-PA samples",platelets [6],Significant reduction
same,expression of PECAM-1 compared with saline-treated samples,platelets [6],trend toward diminished expression
same,expression of glycoprotein IIb/IIIa compared with saline-treated samples,platelets [6],reduced expression
same,formation of platelet-monocyte aggregates compared with saline-treated samples,platelets [6],trend toward diminished
same,"formation of platelet-monocyte aggregates, TNK versus t-PA",platelets [6],lower
same,"glycoprotein IIb/IIIa expression, TNK versus t-PA samples",platelets [6],Significant reduction
same,"vitronectin receptor expression, TNK versus t-PA samples",platelets [6],Significant reduction

# Source: US20030180282A1, “Method of treatment of thrombotic events” (priority 2002, published 2003)
